# Experimental data: the supplement of paper PMC10567573
# B1: FBXO3 WT (peptide)
# chain: GGFPIIRDQIFRYVHDPECVATTG
# B2: PRAME WT (peptide)
# chain: KKLKIFAMPMQDIKMILKMVQLDS
# B3: NETO1 WT (peptide)
# chain: KTSLLDQLTNTSGTVIGVTSCIVI
# B4: FCHO1 WT (peptide)
# chain: DKLALCHLELTRKLQDLIKDVLRY
# B5: TRIM15 WT (peptide)
# chain: LLARLRELEQQIWKERDEYITKVS
# B6: EHMT1 WT (peptide)
# chain: SARQGELQKVLLMLVDGIDPNFKM
# B7: RSPH3 WT (peptide)
# chain: MTVKPAKAASLARNLAKRRRTYLG
# B8: TRIM15 WT (peptide)
# chain: LSQMGAQSSGKILLCPLCQEEEQA
# B9: FCHO1 WT (peptide)
# chain: HLELTRKLQDLIKDVLRYGEEQLK
# B10: KLHDC10 WT (peptide)
# chain: PSLLELAWEKLLAAFPNLANLSRT
# B11: FAM46D WT (peptide)
# chain: FQEAMTHLQHKLICTRKPEEIRGG
# B12: PSD2 WT (peptide)
# chain: LTHFSRRYCQCNPDDSTSEDGIHT
# B13: WEE1 WT (peptide)
# chain: FLGSSFSPVRCGGPGDASPRGCGA
# B14: NETO1 WT (peptide)
# chain: GFSPIIGRFCGQQNPPVIKSSGRF
# B15: RSPH3 WT (peptide)
# chain: LELQRQREARKRALARKQAQEQLR
# B16: ANKRD17 WT (peptide)
# chain: EMVRFLLEAGADQEHKTDEMHTAL
# B17: FCHSD1 WT (peptide)
# chain: LQEPGVFSPTPPQQFQPAGTDQVC
# B18: CAMK2A WT (peptide)
# chain: ILLVGYPPFWDEDQHRLYKQIKAG
# B19: EHMT1 WT (peptide)
# chain: EEINKNISDFGRQQLLPPFPSLHQ
# B20: DFFB WT (peptide)
# chain: TLVEAIKEQDGREVDWEYFYGLLF
# B21: ADD1 WT (peptide)
# chain: FASDGDSGTCSPLRHSFQKQQREK
# B22: RSAD1 WT (peptide)
# chain: YCNFNKYIPRRLEEAAMQKCLVTE
# B23: FBXO3 WT (peptide)
# chain: FIDTYSDVGRYIDHYAAIKKAWDD
# B24: TAF7L WT (peptide)
# chain: PDVENEVKRLLRSDAEAVSTRWEV
# B25: TMEM192 WT (peptide)
# chain: LWILHLLLECYIQYHHSKIRNRGY
# B26: FBXO3 WT (peptide)
# chain: HDPLWRRHCKKYWLISEEEKTQKN
# B27: KCTD10 WT (peptide)
# chain: SSKEEQKLIATSNKPAVKLLYNRS
# B28: RSPH3 WT (peptide)
# chain: KAASLARNLAKRRRTYLGGAAGRS
# B29: WEE1 WT (peptide)
# chain: FISRTSIPNAASEEGDEDDWASNK
# B30: FCHO1 WT (peptide)
# chain: FSDPSQSDPETKDFWLNMAALTEA
# B31: FAM46D WT (peptide)
# chain: LELKFVSSLRRQFEFSVDSFQIVL
# B32: DFFB WT (peptide)
# chain: KLNCDPSRIYKPQTRLKRKQPVRK
# B33: WEE1 WT (peptide)
# chain: INPFTPDSLLLHSSGQCRRRKRTY
# B34: KLHDC10 WT (peptide)
# chain: CPIIRIPNRFLRGHRPPPARSGHR
# B35: ADD1 WT (peptide)
# chain: LRHSFQKQQREKTRWLNSGRGDEA
# B36: TRIM15 WT (peptide)
# chain: QSSGKILLCPLCQEEEQAETPMAP
# B37: FANCE WT (peptide)
# chain: AQVLMLGQILELPWKEETFLVLQS
# B38: FBXO3 WT (peptide)
# chain: DEEERRRRVFDVPIRRRRCSRLF
# B39: EHMT1 WT (peptide)
# chain: FHKDCASRVNNASYCPHCGEESSK
# B40: ANKRD17 WT (peptide)
# chain: EVLRRLTSSVSCALDEAAAALTRM
# B41: TMEM192 WT (peptide)
# chain: ILGKVILWILHLLLECYIQYHHSK
# B42: RSPH3 WT (peptide)
# chain: VDVQTELYLEEIADRIIEVDMECQ
# B43: SMG5 WT (peptide)
# chain: TRKLSPGKKRCKDIKRLLVNFMYL
# B44: RSPH3 WT (peptide)
# chain: QRLEEQERRHREEKERRKKQQWEI
# B45: MTMR15 WT (peptide)
# chain: FSPDFTLRNTLKSTSEDSLVKQEC
# B46: MTMR15 WT (peptide)
# chain: YVKAKKSIDKDEEFAGSSPQSSKS
# B47: PSD2 WT (peptide)
# chain: PLMGETQERERVLTHFSRRYCQCN
# B48: RSPH3 WT (peptide)
# chain: FIPAKTGKDVATQILEGELFDFDL
# B49: FCHSD1 WT (peptide)
# chain: LEAAEVILEHAHRGEQTTSQVSWE
# B50: CAMK2A WT (peptide)
# chain: CIQQILEAVLHCHQMGVVHRDLKP
# B51: FBXO3 WT (peptide)
# chain: AGGFQQRQGLKYCLPLTFCIHTGL
# B52: FCHO1 WT (peptide)
# chain: FTSSPSPFSSSSPENVEDSGLDSP
# B53: KLHDC10 WT (peptide)
# chain: FGGTGIPFGESNGNGVHVCNVKYK
# Test: protein stability index of a GFP-peptide fusion (GPS, HEK-293T) (PSI 1-6); higher = more stable
# 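Further: lentivirally expressed fusions sorted by FACS into six bins by GFP to DsRed ratio, PSI derived from sequencing read proportions per bin multiplied by bin number.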
protein,measurement,setting,value
B1,protein stability index,"parent: IOH26934_44, c terminus: a fixed tail appended",1.75
B2,protein stability index,"parent: IOH26126_36, c terminus: a fixed tail appended",2.56
B3,protein stability index,"parent: IOH26431_56, c terminus: a fixed tail appended",3.09
B4,protein stability index,"parent: IOH26137_14, c terminus: a fixed tail appended",2.73
B5,protein stability index,"parent: IOH26053_32, c terminus: a fixed tail appended",1.67
B6,protein stability index,"parent: IOH26527_125, c terminus: a fixed tail appended",1.73
B7,protein stability index,"parent: IOH27062_1, c terminus: a fixed tail appended",2.85
B8,protein stability index,"parent: IOH26053_8, c terminus: a fixed tail appended",3.51
B9,protein stability index,"parent: IOH26137_15, c terminus: a fixed tail appended",2.46
B10,protein stability index,"parent: IOH26494_68, c terminus: a fixed tail appended",2.3
B11,protein stability index,"parent: IOH26845_36, c terminus: a fixed tail appended",2.91
B12,protein stability index,"parent: IOH26041_65, c terminus: a fixed tail appended",3.23
B13,protein stability index,"parent: IOH27052_23, c terminus: a fixed tail appended",1.95
B14,protein stability index,"parent: IOH26431_19, c terminus: a fixed tail appended",2.17
B15,protein stability index,"parent: IOH27062_37, c terminus: a fixed tail appended",3.77
B16,protein stability index,"parent: IOH26350_70, c terminus: a fixed tail appended",2.65
B17,protein stability index,"parent: IOH26591_36, c terminus: a fixed tail appended",3.96
B18,protein stability index,"parent: IOH26807_35, c terminus: a fixed tail appended",2.33
B19,protein stability index,"parent: IOH26527_40, c terminus: a fixed tail appended",2.94
B20,protein stability index,"parent: IOH26584_46, c terminus: a fixed tail appended",1.91
B21,protein stability index,"parent: IOH25868_71, c terminus: a fixed tail appended",3.71
B22,protein stability index,"parent: IOH26922_10, c terminus: a fixed tail appended",2.08
B23,protein stability index,"parent: IOH26934_14, c terminus: a fixed tail appended",1.85
B24,protein stability index,"parent: IOH26414_44, c terminus: a fixed tail appended",3.49
B25,protein stability index,"parent: IOH26789_18, c terminus: a fixed tail appended",2.02
B26,protein stability index,"parent: IOH26934_9, c terminus: a fixed tail appended",2.91
B27,protein stability index,"parent: IOH25947_25, c terminus: a fixed tail appended",4.05
B28,protein stability index,"parent: IOH27062_2, c terminus: a fixed tail appended",2.6
B29,protein stability index,"parent: IOH27052_73, c terminus: a fixed tail appended",4.02
B30,protein stability index,"parent: IOH26137_117, c terminus: a fixed tail appended",2.84
B31,protein stability index,"parent: IOH26845_27, c terminus: a fixed tail appended",3.08
B32,protein stability index,"parent: IOH26584_53, c terminus: a fixed tail appended",3.47
B33,protein stability index,"parent: IOH27052_40, c terminus: a fixed tail appended",3.35
B34,protein stability index,"parent: IOH26494_13, c terminus: a fixed tail appended",1.87
B35,protein stability index,"parent: IOH25868_73, c terminus: a fixed tail appended",3.66
B36,protein stability index,"parent: IOH26053_9, c terminus: a fixed tail appended",3.3
B37,protein stability index,"parent: IOH26415_73, c terminus: a fixed tail appended",2.44
B38,protein stability index,"parent: IOH26934_79, c terminus: native",2.81
B39,protein stability index,"parent: IOH26527_103, c terminus: a fixed tail appended",3.47
B40,protein stability index,"parent: IOH26350_34, c terminus: a fixed tail appended",1.95
B41,protein stability index,"parent: IOH26789_17, c terminus: a fixed tail appended",2.97
B42,protein stability index,"parent: IOH27062_43, c terminus: a fixed tail appended",2.16
B43,protein stability index,"parent: IOH27102_46, c terminus: a fixed tail appended",2.32
B44,protein stability index,"parent: IOH27062_61, c terminus: a fixed tail appended",4.62
B45,protein stability index,"parent: IOH26921_45, c terminus: a fixed tail appended",1.89
B46,protein stability index,"parent: IOH26921_28, c terminus: a fixed tail appended",3.04
B47,protein stability index,"parent: IOH26041_63, c terminus: a fixed tail appended",3.06
B48,protein stability index,"parent: IOH27062_49, c terminus: a fixed tail appended",1.77
B49,protein stability index,"parent: IOH26591_31, c terminus: a fixed tail appended",4.39
B50,protein stability index,"parent: IOH26807_20, c terminus: a fixed tail appended",2.46
B51,protein stability index,"parent: IOH26934_31, c terminus: a fixed tail appended",2.73
B52,protein stability index,"parent: IOH26137_77, c terminus: a fixed tail appended",1.88
B53,protein stability index,"parent: IOH26494_29, c terminus: a fixed tail appended",2.05
